Article PMC8163982, “Partial agonism improves the anti-hyperglycaemic efficacy of an oxyntomodulin-derived GLP-1R/GCGR co-agonist” (Molecular Metabolism, 2021)
Where a SMILES comes first, the peptide text is derived from it. [ ]: non-standard residue; d: D form. Aib = CC(C)(N)C(=O)O

How the values were obtained:
[1] = biological target: T1, GCGR (Homo sapiens, UniProt P47871); assay: NanoBiT mini-Gs recruitment to GCGR-SmBiT in HEK293T cells; assay type: cell-based; parameters: expressed in transfected cells; host or cells: HEK293T
T1 sequence (P47871 26-477): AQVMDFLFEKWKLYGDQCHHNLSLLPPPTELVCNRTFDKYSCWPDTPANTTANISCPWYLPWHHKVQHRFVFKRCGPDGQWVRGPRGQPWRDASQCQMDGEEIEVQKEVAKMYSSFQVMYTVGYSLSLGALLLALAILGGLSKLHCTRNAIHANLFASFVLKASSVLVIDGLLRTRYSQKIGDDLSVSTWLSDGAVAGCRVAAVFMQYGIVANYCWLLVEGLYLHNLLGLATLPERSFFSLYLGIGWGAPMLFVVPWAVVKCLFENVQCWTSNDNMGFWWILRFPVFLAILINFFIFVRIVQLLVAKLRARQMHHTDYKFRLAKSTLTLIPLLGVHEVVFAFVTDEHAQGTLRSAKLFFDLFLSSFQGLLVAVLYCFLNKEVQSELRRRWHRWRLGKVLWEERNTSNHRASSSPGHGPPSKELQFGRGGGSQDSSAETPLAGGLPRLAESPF

[2] = biological target: T1, GCGR; assay: NanoBiT β-arrestin-2 recruitment to GCGR-SmBiT in HEK293T cells; assay type: cell-based; parameters: expressed in transfected cells; host or cells: HEK293T
[3] = test system: Huh7-GCGR cells; assay: Fluorescent TMR-ligand internalisation in Huh7-GCGR cells (high content imaging); assay type: cell-based, human; conditions: 100 nM, 30 min, n = 4
Protocol: Huh7-GCGR cells were seeded in black clear-bottom plates coated with 0.1% poly-D-lysine and assayed 24 h later. Then 100 nM of fluorescent TMR-conjugated agonist or vehicle was applied for 30 min. The cells were then washed with cold HBSS and incubated for 5 min in cold acetic acid +150 mM of NaCl buffer at a pH of 2.9 to strip surface ligands. After a final wash, the cells were resuspended in HBSS and the fluorescent ligand uptake was measured and quantified by high content imaging as described in Section 2.9.

[4] = biological target: GCGR-SmBiT (glucagon receptor) (UniProt P47871)
Chain of GCGR-SmBiT (glucagon receptor) (P47871 26-477): as above

[5] = test system: mouse pancreatic islets; assay: Fluorescent TMR-ligand uptake in mouse pancreatic islets; assay type: cell-based; conditions: 100 nM, 30 min, confocal imaging, n = 2
Protocol: Mouse pancreatic islets were isolated and left to recover overnight before being immobilised with Matrigel onto glass-bottom Mattek dishes and stimulated with 100 nM of the indicated TMR-modified agonist for 30 min. Z stacks were recorded for the whole islet volume on a Zeiss LSM780 inverted confocal microscope with a 20× air objective and 1 μm of separation between optical slices.

[6] = biological target: GLP-1R-SmBiT (glucagon-like peptide-1 receptor) (UniProt P43220)
Chain of GLP-1R-SmBiT (glucagon-like peptide-1 receptor) (P43220 24-463): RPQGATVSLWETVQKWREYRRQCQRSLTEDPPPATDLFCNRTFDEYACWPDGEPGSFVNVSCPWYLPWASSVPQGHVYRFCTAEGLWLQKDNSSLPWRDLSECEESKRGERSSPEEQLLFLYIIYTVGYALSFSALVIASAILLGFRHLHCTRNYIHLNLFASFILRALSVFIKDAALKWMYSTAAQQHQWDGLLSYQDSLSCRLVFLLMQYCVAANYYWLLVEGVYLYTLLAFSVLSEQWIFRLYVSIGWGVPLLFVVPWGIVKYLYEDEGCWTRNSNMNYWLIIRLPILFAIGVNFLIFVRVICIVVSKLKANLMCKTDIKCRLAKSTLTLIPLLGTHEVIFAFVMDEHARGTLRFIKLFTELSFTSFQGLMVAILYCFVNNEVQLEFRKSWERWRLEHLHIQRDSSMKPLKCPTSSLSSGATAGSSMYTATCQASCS

[7] = biological target: GCGR-SmBiT (glucagon receptor) (UniProt P47871); assay: split reporter (BiFC, NanoBiT); HEK293T cells co-transfected with receptor-SmBiT and LgBiT-mini-G or LgBiT-β-arrestin-2; in HBSS with furimazine, 37 °C; 5 min baseline, then peptide agonist added and luminescence recorded for 30 min; K@[max] from one-phase (mini-Gs) or bi-exponential (β-arrestin-2) fits at a single maximal agonist concentration
[8] = biological target: GLP-1R-SmBiT (glucagon-like peptide-1 receptor) (UniProt P43220); assay: as above

Chain of GCG-H3 (peptide) (peptide): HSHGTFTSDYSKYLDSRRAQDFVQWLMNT

`CSCC[C@H](NC(=O)[C@H](CC(C)C)NC(=O)[C@H](Cc1c[nH]c2ccccc12)NC(=O)[C@H](CCC(N)=O)NC(=O)[C@@H](NC(=O)[C@H](Cc1ccccc1)NC(=O)[C@H](CC(=O)O)NC(=O)[C@H](CCC(N)=O)NC(=O)[C@H](C)NC(=O)[C@H](CCCNC(=N)N)NC(=O)[C@H](CCCNC(=N)N)NC(=O)[C@H](CO)NC(=O)[C@H](CC(=O)O)NC(=O)[C@H](CC(C)C)NC(=O)[C@H](Cc1ccc(O)cc1)NC(=O)[C@H](CCCCN)NC(=O)[C@H](CO)NC(=O)[C@H](Cc1ccc(O)cc1)NC(=O)[C@H](CC(=O)O)NC(=O)[C@H](CO)NC(=O)[C@@H](NC(=O)[C@H](Cc1ccccc1)NC(=O)[C@@H](NC(=O)CNC(=O)[C@H](Cc1c[nH]cn1)NC(=O)C(C)(C)NC(=O)[C@@H](N)Cc1c[nH]cn1)[C@@H](C)O)[C@@H](C)O)C(C)C)C(=O)N[C@@H](CC(N)=O)C(=O)N[C@H](C(=O)O)[C@@H](C)O` [GCG-AIB2H3] (H-H[Aib]HGTFTSDYSKYLDSRRAQDFVQWLMNT-OH) gave an Emax ([1]; HEK-293T, read-out: GCGR Mini-Gs Emax) of 74 ± 5%, an EC50 ([1]; read-out: GCGR Mini-Gs pEC50 (converted)) of 0.1 µM and an Emax ([2]; HEK-293T, read-out: GCGR β-arrestin-2 Emax) of 53 ± 2%. For the same compound, the EC50 ([2]; read-out: GCGR β-arrestin-2 pEC50 (converted)) was 0.251 µM.

In the case of “HXHGTFTSDYSKYLDAKRAQEFIEWLLAGHHHHHPS(K-TMR)W [SRB103H-TMR, SRB103H analogue conjugated to tetramethylrhodamine (TMR) close to the C-terminus]”, the “TMR-ligand uptake in Huh7-GCGR cells” value [3] is reported as “greater uptake”.

In the case of GCG-H3 (peptide), the Emax of mini-Gs recruitment to GCGR-SmBiT (NanoBiT, HEK293T, AUC over 30 min) [4] is reported as 66 % max, the Emax of β-arrestin-2 recruitment to GCGR-SmBiT (NanoBiT, HEK293T, AUC over 30 min) [4] is reported as 54 % max and the pEC50 of mini-Gs recruitment to GCGR-SmBiT (NanoBiT, HEK293T, AUC over 30 min) [4] is reported as 6.8 pEC50 (M). The pEC50 of β-arrestin-2 recruitment to GCGR-SmBiT (NanoBiT, HEK293T, AUC over 30 min) [4] was 6.3 pEC50 (M).

In the case of “HXQGTFTSDYSKYLDAKRAQEFIEWLLAGHHHHHPS(K-TMR)W [SRB103Q-TMR, SRB103Q analogue conjugated to tetramethylrhodamine (TMR) close to the C-terminus]”, the “TMR agonist uptake in mouse islets” value [5] is reported as “somewhat reduced compared to SRB103H-TMR”.

GLP-1-AIB2 (peptide) was tested, and the Emax of mini-Gs recruitment to GLP-1R-SmBiT (NanoBiT, HEK293T, AUC over 30 min) [6] was 96 % max, the Emax of β-arrestin-2 recruitment to GLP-1R-SmBiT (NanoBiT, HEK293T, AUC over 30 min) [6] was 68 % max and the pEC50 of mini-Gs recruitment to GLP-1R-SmBiT (NanoBiT, HEK293T, AUC over 30 min) [6] was 7.9 pEC50 (M). The pEC50 of β-arrestin-2 recruitment to GLP-1R-SmBiT (NanoBiT, HEK293T, AUC over 30 min) [6] was 7.7 pEC50 (M).

In the case of GCG-AIB2H3 (peptide), the Emax of mini-Gs recruitment to GCGR-SmBiT (NanoBiT, HEK293T, AUC over 30 min) [4] is reported as 74 % max, the Emax of β-arrestin-2 recruitment to GCGR-SmBiT (NanoBiT, HEK293T, AUC over 30 min) [4] is reported as 53 % max and the pEC50 of mini-Gs recruitment to GCGR-SmBiT (NanoBiT, HEK293T, AUC over 30 min) [4] is reported as 7 pEC50 (M). For the same compound, the pEC50 of β-arrestin-2 recruitment to GCGR-SmBiT (NanoBiT, HEK293T, AUC over 30 min) [4] was 6.6 pEC50 (M).

In the case of Glucagon-AIB2 (GCG-AIB2) (peptide), the Emax of mini-Gs recruitment to GCGR-SmBiT (NanoBiT, HEK293T, AUC over 30 min) [4] is reported as 54 % max, the Emax of β-arrestin-2 recruitment to GCGR-SmBiT (NanoBiT, HEK293T, AUC over 30 min) [4] is reported as 25 % max and the pEC50 of mini-Gs recruitment to GCGR-SmBiT (NanoBiT, HEK293T, AUC over 30 min) [4] is reported as 6.7 pEC50 (M). The pEC50 of β-arrestin-2 recruitment to GCGR-SmBiT (NanoBiT, HEK293T, AUC over 30 min) [4] was 6.2 pEC50 (M).

For LgBiT-mini-Gs (domain or fragment), the K@[max] with GCG (association rate constant at maximal agonist stimulation) [7] was 0.17 min⁻¹, the K@[max] with GCG-AIB2 (association rate constant at maximal agonist stimulation) [7] was 0.11 min⁻¹ and the K@[max] with GCG-AIB2H3 (association rate constant at maximal agonist stimulation) [7] was 0.13 min⁻¹. It also gave a K@[max] with GCG-H3 (association rate constant at maximal agonist stimulation) [7] of 0.13 min⁻¹, a K@[max] with SRB103H (association rate constant at maximal agonist stimulation) [7] of 0.14 min⁻¹ and a K@[max] with SRB103Q (association rate constant at maximal agonist stimulation) [7] of 0.13 min⁻¹. For the same compound, the K@[max] with GLP-1-AIB2 (association rate constant at maximal agonist stimulation) [8] was 0.21 min⁻¹, the K@[max] with SRB103H (association rate constant at maximal agonist stimulation) [8] was 0.93 min⁻¹ and the K@[max] with SRB103Q (association rate constant at maximal agonist stimulation) [8] was 0.7 min⁻¹.
